Laboratory results as given in publication PMC10119292, “Characterization of a fold in TANGO1 evolved from SH3 domains for the export of bulky cargos” (Nature Communications, 2023).

T1: human Otoraplin, residues 18-128 (human, UniProt Q9NRC9 18-128)
T1 construct: Otoraplin, human, UniProt Q9NRC9, residues 18-128; [U-15N]-enriched for the NMR titrations; also called Otoraplin (18-128); not shown: His-tag, N-terminal, cleaved
T1 sequence (looked up): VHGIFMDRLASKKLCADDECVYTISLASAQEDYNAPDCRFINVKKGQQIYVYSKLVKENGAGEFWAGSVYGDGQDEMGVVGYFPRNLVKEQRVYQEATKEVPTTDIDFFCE

B1: SOS1 (1149-1158), class II PPII helix peptide (peptide, UniProt Q07889 1149-1158, looked up)
peptide: VPPPVPPRRR
notes: SOS1, residues 1149-1158; also called class II ligand; PPII class II ligand; source: synthetic peptide
B2: Drosophila melanogaster TANGO1 cargo-recognition domain, residues 30-139 (domain or fragment)
chain: TLTWAATLSDKRLCADPKCEQIISMGIAKITYAIGGEGLISFKINSPIRVLSKSAGSNMQLWGVDINGRRGYANKDFIMEKKILVRDKDLLYEVPVVGPGSPVQSVETPV
B3: human TALI MOTH domain, residues 23-123 (domain or fragment)
chain: TKLLADLKKCGDLECEALINRVSAMRDYRGPDCRYLNFTKGEEISVYVKLAGEREDLWAGSKGKEFGYFPRDAVQIEEVFISEEIQMSTKESDFLCLLGVS
B4: human Otoraplin, residues 18-128 (domain or fragment)
chain: T1 sequence (looked up)
B5: synthetic peptide of human TANGO1 residues 132-151 (predicted C-terminal helix) (peptide, UniProt Q5JRA6 132-151, looked up)
peptide: FHNYNVEELLGFLELYNSAA
notes: TANGO1, human, UniProt Q5JRA6, residues 132-151; also called C-terminal helix peptide; peptide corresponding to residues 132–151; source: synthetic peptide
B6: human TANGO1 MOTH domain with C-terminal helix, residues 21-151 (domain or fragment)
chain: PGQLDPSTGRRFSEHKLCADDECSMLMYRGEALEDFTGPDCRFVNFKKGDPVYVYYKLARGWPEVWAGSVGRTFGYFPKDLIQVVHEYTKEELQVPTDETDFVCFDGGRDDFHNYNVEELLGFLELYNSAA

Legend:
[1] = molecular target: T1, human Otoraplin, residues 18-128; experiment: NMR titration; 1H-15N HSQC series of [U-15N]-Otoraplin with SOS1 (1149-1158) at protein:peptide ratios 1:0.5 to 1:50; PBS pH 7.4, 298 K; two-dimensional lineshape analysis (TITAN), two-state binding model; details: both partners purified
[2] = molecular target: Collagen type IV from human placenta (human) (UniProt P08572); experiment: MST; RED-NHS-labeled collagen type IV constant at 25 nM, unlabeled partner varied (16 1:1 dilutions); 10 mM HEPES pH 7.2, 150 mM NaCl, 0.005% Tween-20, 15 µM BSA; 25 °C; 60% LED power, high MST power, MST-on time 1.5 s
[3] = molecular target: human TANGO1 cargo-recognition (MOTH) domain, residues 21-131 (human, UniProt Q5JRA6-4 21-131, disulfides Cys38-Cys43 and Cys61-Cys124; cis-Pro83; His-tag removed with TEV (PDB 7R3M entity has one extra N-terminal Met); 15N or 15N/13C labelled for NMR); experiment: NMR titration; 1H-15N HSQC series of 208 µM [U-15N]-hsTANGO1(21-131) with peptide 132-151 at ratios 1:0.25 to 1:6; 25 mM HEPES pH 7.4, 150 mM NaCl, 298 K; two-dimensional lineshape analysis (TITAN), two-state binding model; details: both partners purified
human TANGO1 cargo-recognition (MOTH) domain, residues 21-131, sequence (Q5JRA6 other isoform, or with tags, fused parts or gaps): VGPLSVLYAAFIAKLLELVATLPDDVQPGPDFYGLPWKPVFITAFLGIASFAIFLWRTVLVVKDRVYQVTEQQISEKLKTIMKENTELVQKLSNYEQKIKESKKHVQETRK

| Binder | Kd [2] [µM] | also measured |
| --- | --- | --- |
| B1 |  | Kd [1]: 1300 µM; koff [1]: 350000 s⁻¹ |
| B2 | 6.9 |  |
| B3 | 11.4 |  |
| B4 | 9.9 |  |
| B5 |  | Kd [3]: 321 µM; koff [3]: 1100 s⁻¹ |
| B6 | 3.3 |  |
